Assay [1] concerns the target T1, soluble human FcRn (shFcRn) (human, UniProt P55899 24-297; P61769 21-119).
T1 construct: For crystallography it was expressed in CHOK1SV cells and deglycosylated with PNGaseF; biotinylated for phage selection; also called hFcRn/β2m; FcRn-biotin
Put plainly: SPR (Biacore), pH 7.4. A general note: SPR reads the build-up and loss of mass on a sensor chip optically.
Protocol: (§1) SPR analyses: SPR analyses were conducted using a Biacore 3000 or T100 instrument. Research-grade CMS sensor chips and all coupling reagents for immobilization were purchased from Biacore. All proteins were cross-linked to the dextran surface of a CM5 sensor chip by standard amine coupling chemistry as recommended by Biacore. […] Binding experiments were performed at pH 6.0 or 7.4 using 50 mM phosphate, 100 mM sodium chloride and 0.01% surfactant P20. […] Bound albumin protein was then allowed to dissociate from the chip for 5 minutes with running buffer. Any remaining albumin was removed from the chip with a 60 second injection (2 cycles) of pH 8.0 Tris-HCl regeneration buffer (1 M Tris pH 8.0) at 25 μL/min flow rate. The binding responses recorded near the end of the association phase were plotted as a function of concentration. Equilibrium dissociation constants (KD), were derived from sensorgrams using the 1:1 binding model of BlAevaluation software 4.1.

Assay [2] has as its target T1, soluble human FcRn (shFcRn). Nature of the assay: SPR (Biacore), pH 6.0.
Protocol: as §1
For assay [3] the target is unchanged. Nature of the assay: method not stated in the sentence (Example 5, description of peptides); approximate KD in the Example 5 text, pH and method not stated.
Assay [4] shares this target. Put plainly: SPR (Biacore), immobilized shFcRn, pH 6, fit 'ss'.
The target is the same in assay [5]. Put plainly: SPR (Biacore), immobilized shFcRn, pH 7.4.
Assay [6] shares this target. Nature of the assay: SPR (Biacore), Kd pH 7.4 divided by Kd pH 6.0.
For assay [7] the target is unchanged. Nature of the assay: SPR (Biacore), immobilized shFcRn, pH 6, steady-state fit.
Assay [8] shares this target. Nature of the assay: SPR (Biacore), immobilized shFcRn, pH 6, 2 site fit.
The target is the same in assay [9]. Put plainly: SPR (Biacore), immobilized shFcRn, pH 6; data fit column: aggregates/non specific.
Assay [10] has the same target. Put plainly: SPR (Biacore), immobilized shFcRn, pH 6, steady-state fit; pH 6; first of two values in the cell, marked *; immobilized shFcRn.
Assay [11] shares this target. Nature of the assay: phage display hit; X-ray crystallography.
Assay [12] has the same target. Put plainly: SPR (Biacore), immobilized shFcRn, pH 7.4. The source holds these as a separate data set.
For assay [13] the target is unchanged. Nature of the assay: SPR (Biacore), immobilized shFcRn, pH 6, steady-state fit. This is another data set of the same source.
Assay [14] shares this target. Put plainly: SPR (Biacore), pH 6.0; pH 6.0.
For assay [15] the target is unchanged. Put plainly: SPR (Biacore), Kd pH 7.4 divided by Kd pH 6.0. The source holds these as a separate data set.

Several values for one entry are separate records, joined by “and”; a condition that tells them apart may be missing. Identical values can stand only once. Like-named read-outs stand apart in the source and are kept apart here. Bridge positions count the residues as written; N and C are the ends.

The source of these data is US20170209529A1 (BRIGHAM AND WOMEN S HOSPITAL, published 2017).

In general, Kd refers to a measure of binding affinity in units of concentration. A lower Kd goes with tighter binding.

T1 sequence (P55899 24-297 limits assumed, chain 1 of 2): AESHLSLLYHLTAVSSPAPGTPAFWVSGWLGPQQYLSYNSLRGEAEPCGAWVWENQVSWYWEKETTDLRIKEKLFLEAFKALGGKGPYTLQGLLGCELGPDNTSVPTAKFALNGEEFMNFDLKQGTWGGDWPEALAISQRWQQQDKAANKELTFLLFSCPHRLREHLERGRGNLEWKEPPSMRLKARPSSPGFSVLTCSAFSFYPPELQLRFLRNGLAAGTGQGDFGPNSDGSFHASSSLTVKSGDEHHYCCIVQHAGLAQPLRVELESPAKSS
T1 sequence (P61769 21-119 limits assumed, chain 2 of 2): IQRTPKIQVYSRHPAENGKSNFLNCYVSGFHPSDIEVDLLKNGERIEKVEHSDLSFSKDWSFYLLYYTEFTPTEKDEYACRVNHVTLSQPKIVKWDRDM

B1: SYN1327 (peptide)
peptide: RFXTGHFGXLYPC
modifications: N-terminal acetyl; C-terminal amide; Pen (L-penicillamine) at 3; Sar (sarcosine) at 9; NMeLeu (L-N-methylleucine) at 10
In the case of B1, the Kd is 170 nM in assay [1], 31 nM in assay [2] and around 25 nM in assay [3].

B2: SYN1145 (peptide)
peptide: Ac-YATCKWDDGFSCEYV-NH2
modifications: disulfide 4-12 (inferred)
B2 showed a Kd in assay [4] of 57000 nM.

B3: SYN1147 (peptide)
peptide: Ac-YMTCAWDDGFSCEYV-NH2
modifications: disulfide 4-12 (inferred)
In the case of B3, the Kd in [5] was determined as 27000 nM; in assay [7], 480 nM; in assay [8] it was 470 nM. The “Kd Ratio 7.4/6.0” value in assay [6] turned out to be 56.

B4: SYN515 (peptide)
peptide: Ac-AGYMTCKWDDGFSCEYVGTGGGK-NH2
modifications: disulfide 6-14 (inferred)
For the molecule B4, the Kd in assay [5] is 18000 nM; in assay [8], 230 nM. Further, the “Kd Ratio 7.4/6.0” value in assay [6] worked out at 78.

B5: SYN1383 (peptide)
peptide: Ac-VMHCFWDEEFRCEYV-NH2
modifications: disulfide 4-12 (inferred)
notes: Truncated and SAR-optimized analog of SYN514
For the molecule B5, the Kd was determined as 1100 nM in [5], 1100 nM in [1], 32 nM in assay [7] and 32 nM in assay [2]. Further, the “Kd Ratio 7.4/6.0” value in [6] came to 34.

B6: SYN1559 (peptide)
peptide: Ac-VMHAFWDEEFRAEYV-NH2
Take B6: the binding result in assay [9] is reported as “no binding”.

B7: SYN1536 (peptide)
peptide: Ac-VMKCWWDEEFLCRAF-NH2
modifications: disulfide 4-12 (inferred)
With B7, the Kd in assay [5] worked out at 1100 nM; in [10], 31 nM; in assay [7], 18 nM. In addition, the “Kd Ratio 7.4/6.0” value in assay [6] was found to be 61.

B8: SYN514 (peptide)
peptide: Ac-AGVMHCFWDEEFKCDQGGTGGGK-NH2
modifications: disulfide 6-14 (inferred)
As for B8, the binding result in assay [11] is listed as “binds”.

B9: SYN571 (peptide)
peptide: Ac-AGRYFCTKWKHGWCEEVGTGGGK-NH2
modifications: disulfide 6-14 (inferred)
With B9, the Kd is 13100 nM in assay [12]; 450 nM and 500 nM in assay [13]; 500 nM in assay [14]; 13100 nM in assay [1]. In addition, the “Kd Ratio 7.4/6.0” value in assay [15] came out at 29.
